Our source for the stoichiometry N values is paper PMC3682496.

The target of the experiment is maltose-binding protein (MBP-DHhN) modified with 6-azicholestanol (not stated | Drosophila). Kind of experiment: cross-linking.

Usually stoichiometry N stands for a count of units in the complex or per binding partner. “Scube2, HA-tagged (from UniProt Q9JJS0 29-997) (natural protein)”: the stoichiometry N came to 1.
